Experimental data taken from patent publication US9120862 (AbbVie / Abbott, dated 2015).
Bridge positions count the residues as written; N and C are the ends. Ends that are not written are not given here.

T1: Alexa-488 labeled PIVKA-II Gla domain peptide (13-27) (human, disulfide 5-10 (inferred); also: labelled with Alexa Fluor 488 TFP ester, site not given here)
T1 construct: also called Alexa488-PIVKA-II (13-27); Alexa488-PIVKA-II peptide (13-27 cyc)
T1 peptide: LERECVEETCSYEEA

B1: monoclonal antibody 3C10 (produced by hybridoma cell line ATCC deposit designation PTA-9638) (antibody, V domains shown)
VH: EVQLVESGGDLVKPGGSLKLSCAASGFTFSSYGMSWVRQTPDKRLEWVATISRGGSSTYYPDSVKGRFTISRDNAKNNLYLQMSSLKSEDTAMYYCASLNYGNFFDYWGQGTTLTVSS
VL: DVVMTQTPLSLPVSLGDQASISCRSSQSLVHSNGNTYLHWYLQKPGQSPKLLIYKVSNRFSGVPDRFSGSGSGTDFTLKISRVEAEDLGVYFCSQNRHVPPTFGGGTKLEIKR

molecular target: B1; assay: FCS competition: 2 nM Alexa488-PIVKA-II (13-27) premixed with 10 nM mAb 3C10, analog peptide added, overnight; D of the tracer (high D = tracer displaced)

Apparent Diffusion Coefficient (D)	Binder
52 um^2/sec	LERECMEETCSYEEA (disulfide 5-10 (inferred)) [13-27 Gla domain PIVKA Factor X peptide]
48 um^2/sec	LERECMEEKCSFEEA (disulfide 5-10 (inferred)) [13-27 Gla domain PIVKA IX peptide]
49 um^2/sec	LERECKEEQCSFEEA (disulfide 5-10 (inferred)) [13-27 Gla domain PIVKA Factor VII peptide]
53 um^2/sec	LERECIEEICDFEEA (disulfide 5-10 (inferred)) [13-27 Gla domain PIVKA Protein C peptide]
51 um^2/sec	LEKECYEEICVYEEA (disulfide 5-10 (inferred)) [13-27 Gla domain PIVKA Protein Z peptide]
50 um^2/sec	LERECIEELCNKEEA (disulfide 5-10 (inferred)) [13-27 Gla domain PIVKA Protein S peptide]

Molecular target: T1, Alexa-488 labeled PIVKA-II Gla domain …
Assay: fluorescence quenching titration: BHQ-labelled mAb 3C10 titrated against 0.05 nM Alexa488 PIVKA-II peptide (13-27)

EC50 (read off the curve)	Binder
~100 pM	B1
